By Kd is commonly meant the free concentration of one partner at which half of the binding sites on the other are occupied at equilibrium, for simple one-to-one binding. Higher therefore signals a looser complex.

Sequences and labels used below:
B1: SW186 monoclonal antibody (murine-human chimeric, human IgG1 backbone) (antibody, V domains shown)
VH: QVQLQQSGAELVKPGASVKISCKASGVAFSSYWMNWVKQRPGKGLEWIGQIYPGDGDTNYNGKFKGKATLTADKSSSTAYMQLSSLSSEDSAVYFCARGFIATVEETMDYWGQGTSVTVSS
VL: DIQMTQTTSSLSASLGDRVTISCRASQDISNYLNWYQQKPDGTVKLLIYYTSRLHSGVPSRFSGSGSGTDYSLTISNLEQEDIATYFCQQSHTLPWTFGGGTKLEIK
B2: SW186 Fab (fragment antigen-binding region of SW186) (Fab, V domains shown)
VH: QVQLQQSGAELVKPGASVKISCKASGVAFSSYWMNWVKQRPGKGLEWIGQIYPGDGDTNYNGKFKGKATLTADKSSSTAYMQLSSLSSEDSAVYFCARGFIATVEETMDYWGQGTSVTVSS
VL: DIQMTQTTSSLSASLGDRVTISCRASQDISNYLNWYQQKPDGTVKLLIYYTSRLHSGVPSRFSGSGSGTDYSLTISNLEQEDIATYFCQQSHTLPWTFGGGTKLEIK
B3: SW186 Fab (Fab, V domains shown)
VH: QVQLQQSGAELVKPGASVKISCKASGVAFSSYWMNWVKQRPGKGLEWIGQIYPGDGDTNYNGKFKGKATLTADKSSSTAYMQLSSLSSEDSAVYFCARGFIATVEETMDYWGQGTSVTVSS
VL: DIQMTQTTSSLSASLGDRVTISCRASQDISNYLNWYQQKPDGTVKLLIYYTSRLHSGVPSRFSGSGSGTDYSLTISNLEQEDIATYFCQQSHTLPWTFGGGTKLEIK
B4: humanized SW186 H3L3 (antibody, V domains shown)
VH: QVQLVQSGAEVKKPGSSVKVSCKASGVAFSSYWMNWVRQAPGQGLEWIGQIYPGDGDTNYNGKFKGRATITADKSTSTAYMELSSLRSEDTAVYFCARGFIATVEETMDYWGQGTLVTVSS
VL: DIQMTQSPSSLSASVGDRVTITCRASQDISNYLNWYQQKPGKAPKLLIYYTSRLHSGVPSRFSGSGSGTDYTLTISSLQPEDFATYFCQQSHTLPWTFGGGTKLEIK
B5: humanized SW186 H2L4 (antibody, V domains shown)
VH: QVQLVQSGAEVKKPGSSVKVSCKASGVAFSSYWMNWVRQAPGQGLEWIGQIYPGDGDTNYNGKFKGRVTITADKSTSTAYMELSSLRSEDTAVYFCARGFIATVEETMDYWGQGTLVTVSS
VL: DIQMTQSPSSLSASVGDRVTITCRASQDISNYLNWYQQKPGKTVKLLIYYTSRLHSGVPSRFSGSGSGTDYTLTISSLQPEDFATYFCQQSHTLPWTFGGGTKLEIK
B6: humanized SW186 H1L4 (antibody, V domains shown)
VH: QVQLVQSGAEVKKPGSSVKVSCKASGVAFSSYWMNWVRQAPGQGLEWMGQIYPGDGDTNYNGKFKGRVTITADKSTSTAYMELSSLRSEDTAVYYCARGFIATVEETMDYWGQGTLVTVSS
VL: DIQMTQSPSSLSASVGDRVTITCRASQDISNYLNWYQQKPGKTVKLLIYYTSRLHSGVPSRFSGSGSGTDYTLTISSLQPEDFATYFCQQSHTLPWTFGGGTKLEIK
B7: humanized SW186 H3L1 (antibody, V domains shown)
VH: QVQLVQSGAEVKKPGSSVKVSCKASGVAFSSYWMNWVRQAPGQGLEWIGQIYPGDGDTNYNGKFKGRATITADKSTSTAYMELSSLRSEDTAVYFCARGFIATVEETMDYWGQGTLVTVSS
VL: DIQMTQSPSSLSASVGDRVTITCRASQDISNYLNWYQQKPGKAPKLLIYYTSRLHSGVPSRFSGSGSGTDFTLTISSLQPEDFATYYCQQSHTLPWTFGGGTKLEIK
B8: humanized SW186 H1L2 (antibody, V domains shown)
VH: QVQLVQSGAEVKKPGSSVKVSCKASGVAFSSYWMNWVRQAPGQGLEWMGQIYPGDGDTNYNGKFKGRVTITADKSTSTAYMELSSLRSEDTAVYYCARGFIATVEETMDYWGQGTLVTVSS
VL: DIQMTQSPSSLSASVGDRVTITCRASQDISNYLNWYQQKPGKAPKLLIYYTSRLHSGVPSRFSGSGSGTDFTLTISSLQPEDFATYFCQQSHTLPWTFGGGTKLEIK
B9: humanized SW186 H4L4 (antibody, V domains shown)
VH: QVQLVQSGAEVKKPGSSVKVSCKASGVAFSSYWMNWVKQAPGQGLEWIGQIYPGDGDTNYNGKFKGKATITADKSTSTAYMELSSLRSEDTAVYFCARGFIATVEETMDYWGQGTLVTVSS
VL: DIQMTQSPSSLSASVGDRVTITCRASQDISNYLNWYQQKPGKTVKLLIYYTSRLHSGVPSRFSGSGSGTDYTLTISSLQPEDFATYFCQQSHTLPWTFGGGTKLEIK
B10: humanized SW186 H4L2 (antibody, V domains shown)
VH: QVQLVQSGAEVKKPGSSVKVSCKASGVAFSSYWMNWVKQAPGQGLEWIGQIYPGDGDTNYNGKFKGKATITADKSTSTAYMELSSLRSEDTAVYFCARGFIATVEETMDYWGQGTLVTVSS
VL: DIQMTQSPSSLSASVGDRVTITCRASQDISNYLNWYQQKPGKAPKLLIYYTSRLHSGVPSRFSGSGSGTDFTLTISSLQPEDFATYFCQQSHTLPWTFGGGTKLEIK
B11: humanized SW186 H3L4 (antibody, V domains shown)
VH: QVQLVQSGAEVKKPGSSVKVSCKASGVAFSSYWMNWVRQAPGQGLEWIGQIYPGDGDTNYNGKFKGRATITADKSTSTAYMELSSLRSEDTAVYFCARGFIATVEETMDYWGQGTLVTVSS
VL: DIQMTQSPSSLSASVGDRVTITCRASQDISNYLNWYQQKPGKTVKLLIYYTSRLHSGVPSRFSGSGSGTDYTLTISSLQPEDFATYFCQQSHTLPWTFGGGTKLEIK
B12: humanized SW186 H2L2 (antibody, V domains shown)
VH: QVQLVQSGAEVKKPGSSVKVSCKASGVAFSSYWMNWVRQAPGQGLEWIGQIYPGDGDTNYNGKFKGRVTITADKSTSTAYMELSSLRSEDTAVYFCARGFIATVEETMDYWGQGTLVTVSS
VL: DIQMTQSPSSLSASVGDRVTITCRASQDISNYLNWYQQKPGKAPKLLIYYTSRLHSGVPSRFSGSGSGTDFTLTISSLQPEDFATYFCQQSHTLPWTFGGGTKLEIK
B13: humanized SW186 H2L3 (antibody, V domains shown)
VH: QVQLVQSGAEVKKPGSSVKVSCKASGVAFSSYWMNWVRQAPGQGLEWIGQIYPGDGDTNYNGKFKGRVTITADKSTSTAYMELSSLRSEDTAVYFCARGFIATVEETMDYWGQGTLVTVSS
VL: DIQMTQSPSSLSASVGDRVTITCRASQDISNYLNWYQQKPGKAPKLLIYYTSRLHSGVPSRFSGSGSGTDYTLTISSLQPEDFATYFCQQSHTLPWTFGGGTKLEIK
B14: humanized SW186 H2L1 (antibody, V domains shown)
VH: QVQLVQSGAEVKKPGSSVKVSCKASGVAFSSYWMNWVRQAPGQGLEWIGQIYPGDGDTNYNGKFKGRVTITADKSTSTAYMELSSLRSEDTAVYFCARGFIATVEETMDYWGQGTLVTVSS
VL: DIQMTQSPSSLSASVGDRVTITCRASQDISNYLNWYQQKPGKAPKLLIYYTSRLHSGVPSRFSGSGSGTDFTLTISSLQPEDFATYYCQQSHTLPWTFGGGTKLEIK
B15: humanized SW186 H4L1 (antibody, V domains shown)
VH: QVQLVQSGAEVKKPGSSVKVSCKASGVAFSSYWMNWVKQAPGQGLEWIGQIYPGDGDTNYNGKFKGKATITADKSTSTAYMELSSLRSEDTAVYFCARGFIATVEETMDYWGQGTLVTVSS
VL: DIQMTQSPSSLSASVGDRVTITCRASQDISNYLNWYQQKPGKAPKLLIYYTSRLHSGVPSRFSGSGSGTDFTLTISSLQPEDFATYYCQQSHTLPWTFGGGTKLEIK
B16: humanized SW186 H4L3 (antibody, V domains shown)
VH: QVQLVQSGAEVKKPGSSVKVSCKASGVAFSSYWMNWVKQAPGQGLEWIGQIYPGDGDTNYNGKFKGKATITADKSTSTAYMELSSLRSEDTAVYFCARGFIATVEETMDYWGQGTLVTVSS
VL: DIQMTQSPSSLSASVGDRVTITCRASQDISNYLNWYQQKPGKAPKLLIYYTSRLHSGVPSRFSGSGSGTDYTLTISSLQPEDFATYFCQQSHTLPWTFGGGTKLEIK
B17: humanized SW186 H1L3 (antibody, V domains shown)
VH: QVQLVQSGAEVKKPGSSVKVSCKASGVAFSSYWMNWVRQAPGQGLEWMGQIYPGDGDTNYNGKFKGRVTITADKSTSTAYMELSSLRSEDTAVYYCARGFIATVEETMDYWGQGTLVTVSS
VL: DIQMTQSPSSLSASVGDRVTITCRASQDISNYLNWYQQKPGKAPKLLIYYTSRLHSGVPSRFSGSGSGTDYTLTISSLQPEDFATYFCQQSHTLPWTFGGGTKLEIK

One assay concerns the target T1, SARS-CoV-2 spike ectodomain (S-ecto), Wuhan-hu-1 strain, residues 1-1208 with 2P mutation (SARS-CoV-2, Wuhan-hu-1, UniProt P0DTC2, 2P mutation at residues 986 and 987). Briefly: cell-based or functional assay.
Conditions: not given
B1: the “neutralisation of infectious mNeonGreen SARS-CoV-2, WA1 strain, IC50” value was ~0.04 µg/mL.

A further assay concerns the target T1, SARS-CoV-2 spike ectodomain (S-ecto), …. The assay is described as follows: BLI. As to conditions: both partners purified.
For the molecule B2, the dissociation constant Kd was ~1 nM.

The next assay addresses SARS-CoV-2 spike ectodomain (S-ecto), Wuhan-hu-1, 2P (SARS-CoV-2, Wuhan-hu-1, UniProt P0DTC2, 2P mutation at residues 986 and 987, biotinylated (EZ-link NHS-sulfo-LC-Biotin) for the BLI assay). Briefly: BLI. Particulars: both partners purified.
Take B3: the affinity, expressed as Kd, was 1.09 nM. The same measure, in the same setting: in the case of B4 it was 5.82 nM.

B5 registered a Kd of 3.14 nM.

In the case of B6, the Kd turned out to be 5.03 nM. In turn, B7 yielded a Kd of 6.69 nM. Still for that read-out and setting: next, B8: 26.2 nM; B9: 1.57 nM. In turn, B10 showed a Kd of 5.86 nM. B11 gave a Kd of 2.6 nM.

With B12, the dissociation constant Kd is 12.6 nM. Still for that read-out and setting: next, B13: 3.72 nM. Same read-out and setting: in the case of B14 it was 18.1 nM. The same measure, in the same setting: next, B15: 4.14 nM; B16: 2.4 nM; B17: 4.37 nM.

Source of the values: PMC9407945 (Science immunology, 2022).
